Measurements reported in patent US12104181B2, “Compositions and methods for treating viral infections targeting TRIM7” (THE BOARD OF REGENTS OF THE UNIVERSITY OF TEXAS SYSTEM, priority 2021, dated 2024).

System: coxsackievirus B3 (CVB3-GFP)
Assay type: cell-based
Conditions: HeLa cells, replicate R1; for Percent Infected R1: GFP-positive cells within RFP-positive gate

B1: TRIM45: human RING type E3 ligase expressed from lentiviral vector (protein, UniProt Q9H8W5 1-580, looked up)
E3 ubiquitin-protein ligase …: MSENRKPLLGFVSKLTSGTALGNSGKTHCPLCLGLFKAPRLLPCLHTVCTTCLEQLEPFSVVDIRGGDSDTSSEGSIFQELKPRSLQSQIGILCPVCDAQVDLPMGGVKALTIDHLAVNDVMLESLRGEGQGLVCDLCNDREVEKRCQTCKANLCHFCCQAHRRQKKTTYHTMVDLKDLKGYSRIGKPILCPVHPAEELRLFCEFCDRPVCQDCVVGEHREHPCDFTSNVIHKHGDSVWELLKGTQPHVEALEEALAQIHIINSALQKRVEAVAADVRTFSEGYIKAIEEHRDKLLKQLEDIRAQKENSLQLQKAQLEQLLADMRTGVEFTEHLLTSGSDLEILITKRVVVERLRKLNKVQYSTRPGVNDKIRFCPQEKAGQCRGYEIYGTINTKEVDPAKCVLQGEDLHRAREKQTASFTLLCKDAAGEIMGRGGDNVQVAVVPKDKKDSPVRTMVQDNKDGTYYISYTPKEPGVYTVWVCIKEQHVQGSPFTVMVRRKHRPHSGVFHCCTFCSSGGQKTARCACGGTMPGGYLGCGHGHKGHPGHPHWSCCGKFNEKSECTWTGGQSAPRSLLRTVAL
- Percent Infected R1: 63.9%
- Z score R1: −0.314

B2: TRIM46: human RING type E3 ligase expressed from lentiviral vector (protein, UniProt Q7Z4K8 1-759, looked up)
Tripartite motif-containing …: MAEGEDMQTFTSIMDALVRISTSMKNMEKELLCPVCQEMYKQPLVLPCTHNVCQACAREVLGQQGYIGHGGDPSSEPTSPASTPSTRSPRLSRRTLPKPDRLDRLLKSGFGTYPGRKRGALHPQVIMFPCPACQGDVELGERGLAGLFRNLTLERVVERYRQSVSVGGAILCQLCKPPPLEATKGCTECRATFCNECFKLFHPWGTQKAQHEPTLPTLSFRPKGLMCPDHKEEVTHYCKTCQRLVCQLCRVRRTHSGHKITPVLSAYQALKDKLTKSLTYILGNQDTVQTQICELEEAVRHTEVSGQQAKEEVSQLVRGLGAVLEEKRASLLQAIEECQQERLARLSAQIQEHRSLLDGSGLVGYAQEVLKETDQPCFVQAAKQLHNRIARATEALQTFRPAASSSFRHCQLDVGREMKLLTELNFLRVPEAPVIDTQRTFAYDQIFLCWRLPPHSPPAWHYTVEFRRTDVPAQPGPTRWQRREEVRGTSALLENPDTGSVYVLRVRGCNKAGYGEYSEDVHLHTPPAPVLHFFLDSRWGASRERLAISKDQRAVRSVPGLPLLLAADRLLTGCHLSVDVVLGDVAVTQGRSYWACAVDPASYLVKVGVGLESKLQESFQGAPDVISPRYDPDSGHDSGAEDATVEASPPFAFLTIGMGKILLGSGASSNAGLTGRDGPTAGCTVPLPPRLGICLDYERGRVSFLDAVSFRGLLECPLDCSGPVCPAFCFIGGGAVQLQEPVGTKPERKVTIGGFAKLD
modifications: lentiviral expression
notes: human RING type E3 ligase expressed from lentiviral vector
- Percent Infected R1: 60.8%
- Z score R1: −0.354

B3: TRIM49: human RING type E3 ligase expressed from lentiviral vector (protein, UniProt P0CI25 1-452, looked up)
Tripartite motif-containing …: MNSGILQVFQGELICPLCMNYFIDPVTIDCGHSFCRPCFYLNWQDIPFLVQCSECTKSTEQINLKTNIHLKKMASLARKVSLWLFLSSEEQMCGTHRETKKIFCEVDRSLLCLLCSSSQEHRYHRHRPIEWAAEEHREKLLQKMQSLWEKACENHRNLNVETTRTRCWKDYVNLRLEAIRAEYQKMPAFHHEEEKHNLEMLKKKGKEIFHRLHLSKAKMAHRMEILRGMYEELNEMCHKPDVELLQAFGDILHRSESVLLHMPQPLNPELSAGPITGLRDRLNQFRVHITLHHEEANNDIFLYEILRSMCIGCDHQDVPYFTATPRSFLAWGVQTFTSGKYYWEVHVGDSWNWAFGVCNMYRKEKNQNEKIDGKAGLFLLGCVKNDIQCSLFTTSPLMLQYIPKPTSRVGLFLDCEAKTVSFVDVNQSSLIYTIPNCSFSPPLRPIFCCIHF
modifications: lentiviral expression
notes: as for B2
- Percent Infected R1: 65.7%
- Z score R1: −0.291

B4: RNF170: human RING type E3 ligase expressed from lentiviral vector (protein, UniProt Q96K19 1-258, looked up)
E3 ubiquitin-protein ligase …: MAKYQGEVQSLKLDDDSVIEGVSDQVLVAVVVSFALIATLVYALFRNVHQNIHPENQELVRVLREQLQTEQDAPAATRQQFYTDMYCPICLHQASFPVETNCGHLFCGACIIAYWRYGSWLGAISCPICRQTVTLLLTVFGEDDQSQDVLRLHQDINDYNRRFSGQPRSIMERIMDLPTLLRHAFREMFSVGGLFWMFRIRIILCLMGAFFYLISPLDFVPEALFGILGFLDDFFVIFLLLIYISIMYREVITQRLTR
modifications: lentiviral expression
notes: as for B2
- Percent Infected R1: 97.3%
- Z score R1: 0.11

B5: TRIM50: human RING type E3 ligase expressed from lentiviral vector (protein, UniProt Q86XT4 1-487, looked up)
E3 ubiquitin-protein ligase …: MAWQVSLPELEDRLQCPICLEVFKEPLMLQCGHSYCKGCLVSLSCHLDAELRCPVCRQAVDGSSSLPNVSLARVIEALRLPGDPEPKVCVHHRNPLSLFCEKDQELICGLCGLLGSHQHHPVTPVSTVYSRMKEELAALISELKQEQKKVDELIAKLVNNRTRIVNESDVFSWVIRREFQELHHLVDEEKARCLEGIGGHTRGLVASLDMQLEQAQGTRERLAQAECVLEQFGNEDHHKFIRKFHSMASRAEMPQARPLEGAFSPISFKPGLHQADIKLTVWKRLFRKVLPAPEPLKLDPATAHPLLELSKGNTVVQCGLLAQRRASQPERFDYSTCVLASRGFSCGRHYWEVVVGSKSDWRLGVIKGTASRKGKLNRSPEHGVWLIGLKEGRVYEAFACPRVPLPVAGHPHRIGLYLHYEQGELTFFDADRPDDLRPLYTFQADFQGKLYPILDTCWHERGSNSLPMVLPPPSGPGPLSPEQPTKL
- Percent Infected R1: 57.8%
- Z score R1: −0.392

B6: TRIM52: human RING type E3 ligase expressed from lentiviral vector (protein, UniProt Q96A61 1-297, looked up)
E3 ubiquitin-protein ligase …: MAGYATTPSPMQTLQEEAVCAICLDYFKDPVSISCGHNFCRGCVTQLWSKEDEEDQNEEEDEWEEEEDEEAVGAMDGWDGSIREVLYRGNADEELFQDQDDDELWLGDSGITNWDNVDYMWDEEEEEEEEDQDYYLGGLRPDLRIDVYREEEILEAYDEDEDEELYPDIHPPPSLPLPGQFTCPQCRKSFTRRSFRPNLQLANMVQIIRQMCPTPYRGNRSNDQGMCFKHQEALKLFCEVDKEAICVVCRESRSHKQHSVLPLEEVVQEYQEIKLETTLVGILQIEQESIHSKAYNQ
modifications: lentiviral expression
notes: as for B2
- Percent Infected R1: 67.6%
- Z score R1: −0.267

B7: TRIM59: human RING type E3 ligase expressed from lentiviral vector (protein, UniProt Q8IWR1 1-403, looked up)
Tripartite motif-containing …: MHNFEEELTCPICYSIFEDPRVLPCSHTFCRNCLENILQASGNFYIWRPLRIPLKCPNCRSITEIAPTGIESLPVNFALRAIIEKYQQEDHPDIVTCPEHYRQPLNVYCLLDKKLVCGHCLTIGQHHGHPIDDLQSAYLKEKDTPQKLLEQLTDTHWTDLTHLIEKLKEQKSHSEKMIQGDKEAVLQYFKELNDTLEQKKKSFLTALCDVGNLINQEYTPQIERMKEIREQQLELMALTISLQEESPLKFLEKVDDVRQHVQILKQRPLPEVQPVEIYPRVSKILKEEWSRTEIGQIKNVLIPKMKISPKRMSCSWPGKDEKEVEFLKILNIVVVTLISVILMSILFFNQHIITFLSEITLIWFSEASLSVYQSLSNSLHKVKNILCHIFYLLKEFVWKIVSH
- Percent Infected R1: 59.5%
- Z score R1: −0.37

B8: TRIM60: human RING type E3 ligase expressed from lentiviral vector (protein, UniProt Q495X7 1-471, looked up)
Tripartite motif-containing …: MEFVTALVNLQEESSCPICLEYLKDPVTINCGHNFCRSCLSVSWKDLDDTFPCPVCRFCFPYKSFRRNPQLRNLTEIAKQLQIRRSKRKRQKENAMCEKHNQFLTLFCVKDLEILCTQCSFSTKHQKHYICPIKKAASYHREILEGSLEPLRNNIERVEKVIILQGSKSVELKKKVEYKREEINSEFEQIRLFLQNEQEMILRQIQDEEMNILAKLNENLVELSDYVSTLKHLLREVEGKSVQSNLELLTQAKSMHHKYQNLKCPELFSFRLTKYGFSLPPQYSGLDRIIKPFQVDVILDLNTAHPQLLVSEDRKAVRYERKKRNICYDPRRFYVCPAVLGSQRFSSGRHYWEVEVGNKPKWILGVCQDCLLRNWQDQPSVLGGFWAIGRYMKSGYVASGPKTTQLLPVVKPSKIGIFLDYELGDLSFYNMNDRSILYTFNDCFTEAVWPYFYTGTDSEPLKICSVSDSER
- Percent Infected R1: 54.3%
- Z score R1: −0.436

B9: TRIM61: human RING type E3 ligase expressed from lentiviral vector (protein, UniProt Q5EBN2 1-209, looked up)
Putative tripartite …: MEFVTALADLRAEASCPICLDYLKDPVTISCGHNFCLSCIIMSWKDLHDSFPCPFCHFCCPERKFISNPQLGSLTEIAKQLQIRSKKRKRQEEKHVCKKHNQVLTFFCQKDLELLCPRCSLSTDHQHHCVWPIKKAASYHRKKLEEYNAPWKERVELIEKVITMQTRKSLELKKKMESPSVTRLECSCTISAHFNLRLPGSSDSSASGS
- Percent Infected R1: 65.8%
- Z score R1: −0.29

B10: TRIM62: human RING type E3 ligase expressed from lentiviral vector (protein)
chain: MACSLKDELLCSICLSIYQDPVSLGCEHYFCRRCITEHWVRQEAQGARDCPECRRTFAEPALAPSLKLANIVERYSSFPLDAILNARRAARPCQAHDKVKLFCLTDRALLCFFCDEPALHEQHQVTGIDDAFDELQRELKDQLQALQDSEREHTEALQLLKRQLAETKSSTKSLRTTIGEAFERLHRLLRERQKAMLEELEADTARTLTDIEQKVQRYSQQLRKVQEGAQILQERLAETDRHTFLAGVASLSERLKGKIHETNLTYEDFPTSKYTGPLQYTIWKSLFQDIHPVPAALTLDPGTAHQRLILSDDCTIVAYGNLHPQPLQDSPKRFDVEVSVLGSEAFSSGVHYWEVVVAEKTQWVIGLAHEAASRKGSIQIQPSRGFYCIVMHDGNQYSACTEPWTRLNVRDKLDKVGVFLDYDQGLLIFYNADDMSWLYTFREKFPGKLCSYFSPGQSHANGKNVQPLRINTVRI
- Percent Infected R1: 51.3%
- Z score R1: −0.474
